Results taken from PMC11900463.

T1: sCPR (truncated soluble form of rat NADPH–cytochrome P450 reductase) (rat) (UniProt P00388)
T1 sequence (P00388 whole entry, looked up): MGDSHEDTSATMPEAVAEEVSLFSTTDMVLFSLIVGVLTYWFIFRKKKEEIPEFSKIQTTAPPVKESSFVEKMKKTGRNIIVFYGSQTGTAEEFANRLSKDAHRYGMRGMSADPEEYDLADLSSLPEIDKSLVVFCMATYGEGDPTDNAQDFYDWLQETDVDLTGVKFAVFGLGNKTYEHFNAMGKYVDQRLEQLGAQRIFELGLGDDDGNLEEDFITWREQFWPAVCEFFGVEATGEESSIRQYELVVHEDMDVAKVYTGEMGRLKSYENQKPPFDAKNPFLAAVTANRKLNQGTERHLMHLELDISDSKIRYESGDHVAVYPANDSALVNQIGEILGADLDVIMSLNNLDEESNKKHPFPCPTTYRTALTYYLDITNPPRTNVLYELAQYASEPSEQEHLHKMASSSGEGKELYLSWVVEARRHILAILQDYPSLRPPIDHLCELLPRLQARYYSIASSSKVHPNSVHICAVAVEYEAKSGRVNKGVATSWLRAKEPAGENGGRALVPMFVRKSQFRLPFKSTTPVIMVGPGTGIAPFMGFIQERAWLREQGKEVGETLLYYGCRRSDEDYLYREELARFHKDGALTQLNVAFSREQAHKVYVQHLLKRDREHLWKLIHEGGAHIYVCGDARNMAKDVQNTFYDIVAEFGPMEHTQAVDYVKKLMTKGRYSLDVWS

B1: 6xHis-tagged C281S tsHO-2 (enzyme)
chain: MADLSELLKEGTKEAHDRAENTQFVKDFLKGNIKKELFKLATTALYFTYSALEEEMDRNKDHPAFAPLYFPTELHRKEALIKDMEYFFGENWEEQVKCSEAAQKYVDRIHYVGQNEPELLVAHAYTRYMGDLSGGQVLKKVAQRALKLPSTGEGTQFYLFEHVDNAQQFKQFYRARMNALDLSMKTKERIVEEANKAFEYNMQIFSELDQAGSMLTKETLEDGLPVHDGKGDVRKCPFYAAQPDKGTLGGSNSPFRTAMAVLRK
B2: 6xHis-tagged C264S/C281S tsHO-2 (enzyme)
chain: MADLSELLKEGTKEAHDRAENTQFVKDFLKGNIKKELFKLATTALYFTYSALEEEMDRNKDHPAFAPLYFPTELHRKEALIKDMEYFFGENWEEQVKCSEAAQKYVDRIHYVGQNEPELLVAHAYTRYMGDLSGGQVLKKVAQRALKLPSTGEGTQFYLFEHVDNAQQFKQFYRARMNALDLSMKTKERIVEEANKAFEYNMQIFSELDQAGSMLTKETLEDGLPVHDGKGDVRKSPFYAAQPDKGTLGGSNSPFRTAMAVLRK
B3: 6xHis-tagged C264S tsHO-2 (enzyme)
chain: MADLSELLKEGTKEAHDRAENTQFVKDFLKGNIKKELFKLATTALYFTYSALEEEMDRNKDHPAFAPLYFPTELHRKEALIKDMEYFFGENWEEQVKCSEAAQKYVDRIHYVGQNEPELLVAHAYTRYMGDLSGGQVLKKVAQRALKLPSTGEGTQFYLFEHVDNAQQFKQFYRARMNALDLSMKTKERIVEEANKAFEYNMQIFSELDQAGSMLTKETLEDGLPVHDGKGDVRKSPFYAAQPDKGTLGGSNCPFRTAMAVLRK

target: T1, sCPR (truncated soluble form of rat NADPH–cytochrome P450 reductase) (rat)

Row | Molecule | apparent reduction rate constant of heme by sCPR (formation of the CO-bound heme complex, CO-saturated, anaerobic, 30 °C; non-His-tagged enzyme) [min⁻¹] | enzymatic activity (rate of bilirubin formation at 37 °C with 2.9 μM sCPR, 40 μM heme, NADPH; non-His-tagged enzyme) [min⁻¹]
1 | 6xHis-tagged ΔHRM tsHO-2 (from UniProt P23711 29-292) (enzyme) | 106 | 14.3
2 | B1 | 89.6 | 7.32
3 | B2 | 113 | 11.2
4 | B3 | 93.2 | 4.91
